Measured values as given in patent US20210214459A1 (Novartis, published 2021).

T1: human CD73 expressed on the cell surface (human, UniProt P21589 27-549)
T1 construct: whole, on cells; also called surface CD73
T1 sequence (looked up): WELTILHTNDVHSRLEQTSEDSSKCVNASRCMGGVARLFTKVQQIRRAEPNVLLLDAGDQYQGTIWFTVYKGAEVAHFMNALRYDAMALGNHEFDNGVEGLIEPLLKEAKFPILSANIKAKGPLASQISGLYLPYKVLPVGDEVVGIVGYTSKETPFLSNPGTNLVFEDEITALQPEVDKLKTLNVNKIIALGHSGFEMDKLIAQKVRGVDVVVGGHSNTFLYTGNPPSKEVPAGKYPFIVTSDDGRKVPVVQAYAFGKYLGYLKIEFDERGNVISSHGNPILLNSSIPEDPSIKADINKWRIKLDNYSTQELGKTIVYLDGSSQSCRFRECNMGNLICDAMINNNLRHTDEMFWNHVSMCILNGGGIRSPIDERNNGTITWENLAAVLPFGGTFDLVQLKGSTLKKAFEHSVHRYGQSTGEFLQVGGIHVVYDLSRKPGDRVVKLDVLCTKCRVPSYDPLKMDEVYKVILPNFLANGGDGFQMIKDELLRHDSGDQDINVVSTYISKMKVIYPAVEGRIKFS


Biological target: T1, human CD73 expressed on the cell surface
Test: flow cytometry, biotinylated antibody on CD8+ T cells in human whole blood, streptavidin-APC detection
Method: Whole blood target engagement was assessed by flow cytometry using whole blood from healthy human donors. Briefly, biotinylated antibodies were incubated with whole blood for 30 minutes prior to red blood cell lysis and fixation. Fixed cells were stained for CD3 and CD8 to identify CD8+ T cells, and streptavidin-APC to detect biotin. After staining, the cell were washed and subjected to flow cytometry analysis.

EC50 (read off the curve) [ng/mL] | Binder
~6 | 374.B (antibody, human IgG4 S228P, kappa, V domains shown, IgG4 S228P/L235E format; Heavy chain entry ends in X, wherein X is K or absent; Biotinylated in the whole blood assay) VH: EVQLLESGGGLVQPGGSLRLSCAASGFTFSYNAMSWVRQAPGKGLEWVSSISGTGGSTYYADSVKGRFTISRDNSKNTLYLQMNSLRAEDTAVYYCARGGLYGSGSYLSDFDLWGRGTLVTVSS VL: EIVLTQSPATLSVSPGERATLSCRASQSVGSNLAWYQQKPGQAPRLLIYGASTRATGIPARFSGSGSGTEFTLTISSLQSEDFAVYYCQQHNAFPYTFGGGTKVEIKR
~5 | 377.B (antibody, IgG4, V domains shown, IgG4 S228P/L235E format (.B construct); Biotinylated in the whole blood assay) VH: EVQLLESGGGLVQPGGSLRLSCAASGFTFKSYAMSWVRQAPGKGLEWVSAISGSGSYTYYADSVKGRFTISRDNSKNTLYLQMNSLRAEDTAVYYCARGGLYGSGSYLSDFDLWGRGTLVTVSS VL: EIVLTQSPATLSVSPGERATLSCRASQSVGSNLAWYQQKPGQAPRLLIYGASTRATGIPARFSGSGSGTEFTLTISSLQSEDFAVYYCQQHNAFPYTFGGGTKVEIK
~6 | 379.B (antibody, human IgG4 S228P, kappa, V domains shown, IgG4 S228P/L235E format; Heavy chain entry ends in X, wherein X is K or absent; Biotinylated in the whole blood assay) VH: EVQLLESGGGLVQPGGSLRLSCAASGFTFSRYAMSWVRQAPGKGLEWVSSISGTGGSTYYADSVKGRFTISRDNSKNTLYLQMNSLRAEDTAVYYCARGGLYGSGSYLSDFDLWGRGTLVTVSS VL: EIVLTQSPATLSVSPGERATLSCRASQSVGSNLAWYQQKPGQAPRLLIYGASTRATGIPARFSGSGSGTEFTLTISSLQSEDFAVYYCQQHNAFPYTFGGGTKVEIKR
~5 | 356.B (antibody, human IgG4 S228P, kappa, V domains shown, IgG4 S228P/L235E format; Heavy chain entry ends in X, wherein X is K or absent; Biotinylated in the whole blood assay) VH: QVQLQESGPGLVKPSETLSLTCTVSGGSIEGRYWSWIRQPPGKGLEWIGYIYGSGSTKYNPSLKSRVTISVDTSKNQFSLKLSSVTAADTAVYYCARESQESPYNNWFDPWGQGTLVTVSS VL: DIQMTQSPSSVSASVGDRVTITCRASQGISSWLAWYQQKPGKAPKLLIYAASSLQSGVPSRFSGSGSGTDFTLTISSLQPEDFATYYCQQGNSFPRTFGGGTKVEIKR
~4 | 358.B (antibody, human IgG4 S228P, kappa, V domains shown, IgG4 S228P/L235E format; Heavy chain entry ends in X, wherein X is K or absent; Biotinylated in the whole blood assay) VH: QVQLQESGPGLVKPSETLSLTCTVSGGSISGRYWSWIRQPPGKGLEWIGYIYGTGSTNYNPSLKSRVTISVDTSKNQFSLKLSSVTAADTAVYYCARESQESPYNNWFDPWGQGTLVTVSS VL: DIQMTQSPSSVSASVGDRVTITCRASQGISSWLAWYQQKPGKAPKLLIYAASSLQSGVPSRFSGSGSGTDFTLTISSLQPEDFATYYCQQGNSFPRTFGGGTKVEIKR
~5 | 350.B (antibody, human IgG4 S228P, kappa, IgG4 S228P/L235E format; Heavy chain entry ends in X, wherein X is K or absent; Biotinylated in the whole blood assay) heavy: not shown light: DIQMTQSPSSVSASVGDRVTITCRASQGISSWLAWYQQKPGKAPKLLIYAASSLQSGVPSRFSGSGSGTDFTLTISSLQPEDFATYYCQQGNSFPRTFGGGTKVEIKRTVAAPSVFIFPPSDEQLKSGTASVVCLLNNFYPREAKVQWKVDNALQSGNSQESVTEQDSKDSTYSLSSTLTLSKADYEKHKVYACEVTHQGLSSPVTKSFNRGEC
